# Measured values reported in the supplement of paper PMC7125110.
# ± gives the standard error. For part of these data: Fewer inactive variants are shown than the library holds.
# B1: glmS ribozyme (parent)
# chain: AUAAAAGCGCCAGAACUACAGAAAUGUAGUUGACGAGGAGGAGGUUUAUCGAAUUUUCGGCGGAUGCCUCCAAA
# Key:
# Details in all cases: with glucosamine-6-phosphate
# glucosamine-6-phosphate [1] = variants of: B1; test: kcat; higher = faster cleavage; RNA array
# Method in brief: (§1)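 In situ transcription by E. coli RNA polymerase produced barcoded ribozyme variants on sequenced MiSeq chips, and a hybridised Cy3 probe tracked them at 37 °C. Glucosamine-6-phosphate was flowed in at 40 μM to 10 mM in HEPES/KCl/Mg(OAc)2 buffer. kcat and KM were taken from weighted Michaelis–Menten fits of kobs values from exponential decay fits.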
# glucosamine-6-phosphate [2] = variants of: B1; test: self-cleavage kobs at 160 uM GlcN6P; higher = faster cleavage; RNA array
# Method in brief: as §1
# glucosamine-6-phosphate [3] = variants of: B1; test: self-cleavage kobs at 40 uM GlcN6P; higher = faster cleavage; RNA array
# Method in brief: as §1
# glucosamine-6-phosphate [4] = variants of: B1; test: self-cleavage kobs at 640 uM GlcN6P; higher = faster cleavage; RNA array
# Method in brief: as §1
# glucosamine-6-phosphate [5] = variants of: B1; test: self-cleavage kobs at 2500 uM GlcN6P; higher = faster cleavage; RNA array
# Method in brief: as §1
# glucosamine-6-phosphate [6] = variants of: B1; test: self-cleavage kobs at 10000 uM GlcN6P; higher = faster cleavage; RNA array
# Method in brief: as §1
# glucosamine-6-phosphate [7] = variants of: B1; test: KM; higher = weaker cofactor use; RNA array
# Method in brief: as §1
Variant,kcat (glucosamine-6-phosphate [1]) [s⁻¹],self-cleavage kobs at 160 uM GlcN6P (glucosamine-6-phosphate [2]) [s⁻¹],self-cleavage kobs at 40 uM GlcN6P (glucosamine-6-phosphate [3]) [s⁻¹],self-cleavage kobs at 640 uM GlcN6P (glucosamine-6-phosphate [4]) [s⁻¹],self-cleavage kobs at 2500 uM GlcN6P (glucosamine-6-phosphate [5]) [s⁻¹],self-cleavage kobs at 10000 uM GlcN6P (glucosamine-6-phosphate [6]) [s⁻¹],KM (glucosamine-6-phosphate [7]) [µM]
G35A G37A,< 1e-05,< 1e-05,,,,,
C16U A53G,0.0256 ± 0.012,0.00153 ± 0.00061,0.00111 ± 0.00015,0.0112 ± 0.0028,0.013 ± 0.0042,0.0282 ± 0.0061,
A12C G44A A53U,0.000479 ± 4.3e-05,,,5.92e-05 ± 1.6e-05,0.000169 ± 4.4e-05,,4570 ± 530
C10A C61G,< 1e-05,,,,,,
U30G C58G A64C C67G C71G,4.36e-05 ± 1.6e-05,5.89e-05 ± 2e-05,,,,,
A14U A48C,7.33e-05 ± 4.6e-06,,,,3.85e-05 ± 9.5e-06,6.17e-05 ± 9.4e-06,2020 ± 420
G40C U56C,6.61e-05 ± 9.2e-06,< 1e-05,< 1e-05,,4.67e-05 ± 2e-05,5.45e-05 ± 8.6e-06,
A42G C71U,0.0155 ± 0.0039,0.00294 ± 0.00058,0.000864 ± 0.0001,0.0053 ± 0.0011,0.0147 ± 0.0047,0.0178 ± 0.0034,732 ± 250
C11U U31G,0.00667 ± 0.0031,0.000255 ± 6.7e-05,0.000105 ± 2.5e-05,0.000818 ± 0.00016,0.00175 ± 0.0004,0.00565 ± 0.00097,
U49C C71A,< 1e-05,,< 1e-05,< 1e-05,,,
C10G C67U,< 1e-05,,< 1e-05,,,,
A14U U57G,2.1e-05 ± 4e-06,,< 1e-05,,,,
C50U C61A C68U,2.59e-05 ± 6.9e-06,,,,,,
A36U A64C,< 1e-05,< 1e-05,< 1e-05,,< 1e-05,< 1e-05,
A6U U54G,0.000293 ± 3e-05,,,3.62e-05 ± 8.4e-06,0.000122 ± 1.5e-05,0.000204 ± 2.5e-05,3960 ± 740
U65C C71A,0.000104 ± 5.5e-06,,,6.26e-05 ± 2.5e-05,8.23e-05 ± 2e-05,0.000102 ± 2.3e-05,481 ± 140
U55A G59A,6.57e-05 ± 1.4e-05,,,,5.76e-05 ± 1.7e-05,5.69e-05 ± 1.3e-05,
U45A C71G,0.00102 ± 0.00046,0.00023 ± 8.2e-05,0.000108 ± 2e-05,0.000442 ± 9.7e-05,0.00123 ± 0.00059,0.00177 ± 0.00039,
G38A U55G,< 1e-05,< 1e-05,,,,,

Variant,kcat (glucosamine-6-phosphate [1]) [s⁻¹],self-cleavage kobs at 160 uM GlcN6P (glucosamine-6-phosphate [2]) [s⁻¹],self-cleavage kobs at 40 uM GlcN6P (glucosamine-6-phosphate [3]) [s⁻¹],self-cleavage kobs at 640 uM GlcN6P (glucosamine-6-phosphate [4]) [s⁻¹],self-cleavage kobs at 2500 uM GlcN6P (glucosamine-6-phosphate [5]) [s⁻¹],self-cleavage kobs at 10000 uM GlcN6P (glucosamine-6-phosphate [6]) [s⁻¹],KM (glucosamine-6-phosphate [7]) [µM]
C58G,0.000194 ± 8.4e-06,1.37e-05 ± 2.9e-06,,3.47e-05 ± 1.2e-06,8.3e-05 ± 1.6e-06,0.000149 ± 2.3e-06,3180 ± 300
C16U A36U,< 1e-05,,,,,,
G29C U45C,0.000137 ± 2.1e-05,,,,9.03e-05 ± 2e-05,0.000108 ± 1.8e-05,2120 ± 930
C16G G32U,0.000915 ± 8.9e-05,,,0.000144 ± 3.7e-05,0.00032 ± 8.7e-05,0.00068 ± 0.00011,3800 ± 700
A14G G37C,0.000101 ± 3.2e-05,,,5.36e-05 ± 1.6e-05,4.49e-05 ± 9e-06,8.64e-05 ± 9.6e-06,
A39U A64C,0.000269 ± 4.6e-05,,,5.07e-05 ± 7e-06,9.58e-05 ± 1.3e-05,0.00021 ± 1.9e-05,3410 ± 1100
G29A G32C,0.000144 ± 1.8e-05,,,,5.01e-05 ± 9.3e-06,9.45e-05 ± 9.1e-06,5140 ± 1500
A42G U65A,0.00459 ± 0.0018,0.000409 ± 8.8e-05,0.000318 ± 9.9e-05,0.00121 ± 0.00028,0.00291 ± 0.00077,0.00423 ± 0.0014,
C16U U57G C61A,1.37e-05 ± 2e-06,,,,,,
G32C C71A,1.79e-05 ± 3.7e-06,,,,,,
A33C C70U,1.19e-05 ± 4.5e-06,,,,,,
U47C C67G,0.000337 ± 4.8e-05,3.84e-05 ± 8.3e-06,,8.28e-05 ± 9.1e-06,0.000239 ± 3.4e-05,0.000279 ± 3.1e-05,1740 ± 450
A53U G66A,0.0162 ± 0.0055,0.000827 ± 0.00015,0.000372 ± 5.2e-05,0.00327 ± 0.00068,0.00666 ± 0.0024,0.0144 ± 0.0026,2370 ± 1000
G63C U69A,1.18e-05 ± 4.3e-06,,,,,,
C50G U55G,3.86e-05 ± 1.8e-05,7.28e-05 ± 1.9e-05,,,4.97e-05 ± 1.6e-05,,
A12G U45C,6.32e-05 ± 3.9e-06,,,,3.29e-05 ± 1.6e-05,5.04e-05 ± 8e-06,2510 ± 620
G29C U56G,0.00345 ± 0.0011,7.08e-05 ± 1.4e-05,,0.000321 ± 6e-05,0.00115 ± 0.00022,0.00181 ± 0.00049,6770 ± 2600
A12U C16A U56A,0.00194 ± 0.00074,,0.000111 ± 2e-05,0.000636 ± 0.00015,0.00102 ± 0.00035,0.00247 ± 0.00041,
